According to PMC3474736, “Structural Characterization of the Enzymes Composing the Arginine Deiminase Pathway in Mycoplasma penetrans” (PLoS ONE, 2012):

Assays:
Assay in all cases: SEC; HiLoad Superdex 200 26/60 gel-filtration column, 50 mM NaCl, 20 mM Tris-HCl pH 8.0; oligomeric state read from the elution
[1] = molecular target: short-ADI (arginine deiminase from Mycoplasma penetrans, form initiating at Met43 and ending at Lys452) (Mycoplasma penetrans)
[2] = molecular target: carbamate kinase (CK) from Mycoplasma penetrans (Mycoplasma penetrans)
[3] = molecular target: the molecule itself

short-ADI (arginine deiminase from Mycoplasma penetrans, form initiating at Met43 and ending at Lys452) (enzyme)
stoichiometry N [1]: 2

carbamate kinase (CK) from Mycoplasma penetrans (enzyme)
stoichiometry N [2]: 2

B1: ornithine carbamoyltransferase (OTC) from Mycoplasma penetrans (enzyme, UniProt Q8EVF5 1-342, looked up)
chain: MPVNLKGRSLDSLLNFTTEEVQHLIDLSIDLKKAKYQGLHINNRPLVGKNIAILFQKDSTRTRCAFEVAASDLGAGVTYIGPSGSNMGKKESIEDTAKVLGRFYDGIEFRGFAQSDVDALVKYSGVPVWNGLTDDEHPTQIIADFMTMKEKFGNLKNKKIVFIGDYKNNVGVSTMIGAAFNGMHVVMCGPDNYKNEIDKNVLAKCIELFKRNGGSLRFSTDKILAAQDADVIYTDVWVSLGEPFELFDKRIGELKNFQVDMNMIKAAKNDVIFLHCLPAFHDDHTSFSKEVATTLGAKYPIVAKGEMEVTDEVFQSLHNKAFDQAENRMHSIKAIILSTIGY
notes: ornithine carbamoyltransferase (OTC, EC 2.1.3.3), arcB gene product of Mycoplasma penetrans strain GTU-54; traced from Met1 to Tyr342; TGA codons for Trp129 and Trp237 changed to TGG (no change of the amino acids); Dodecamer of four catalytic homotrimers; also called MpOTC; ornitine transcarbamylase; copies: 12
stoichiometry N [3]: 12
